From PMC546169
Residue numbers refer to the chain shown, from its start. Where two headings read alike, the source gives them in different places.

T1: Sac7d V26A (Sulfolobus acidocaldarius, UniProt P13123 1-66, V26A)
T1 sequence: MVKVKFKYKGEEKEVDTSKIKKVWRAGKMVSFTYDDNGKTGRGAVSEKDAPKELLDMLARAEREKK

T2: Sac7d M29F (Sulfolobus acidocaldarius, UniProt P13123 1-66, M29F)
T2 sequence: T1 sequence with A26V, M29F

T3: Sac7d M29A (Sulfolobus acidocaldarius, UniProt P13123 1-66, M29A)
T3 sequence: T1 sequence with A26V, M29A

T4: Sac7d V26F/M29F (Sulfolobus acidocaldarius, UniProt P13123 1-66, V26F;M29F)
T4 sequence: T1 sequence with A26F, M29F

T5: Sac7d V26A/M29A (Sulfolobus acidocaldarius, UniProt P13123 1-66, V26A;M29A)
T5 sequence: T1 sequence with M29A

B1: GTAATTAC duplex (dsDNA)
DNA 1: GTAATTAC
DNA 2: GTAATTAC
B2: GCGATCGC duplex (dsDNA)
DNA 1: GCGATCGC
DNA 2: GCGATCGC
B3: GCGATiCGC duplex (dsDNA)
DNA 1: GCGAUCGC
DNA 2: GCGAUCGC
modifications: DNA with iodo derivative at position 5 (printed Ti; presumably iodo-dU)
B4: GCGAUbrCGC duplex (dsDNA)
DNA 1: GCGAUCGC
DNA 2: GCGAUCGC
modifications: DNA with bromo-dU at position 5 of each strand

Columns and labels:
Assay in all cases: X-ray crystallography
Sac7d V26A = biological target: T1, Sac7d V26A
Sac7d M29F [1] = biological target: T2, Sac7d M29F
Sac7d M29A = biological target: T3, Sac7d M29A
Sac7d M29F [2] = biological target: T2, Sac7d M29F; remark: listed apart in the source
Sac7d V26F/M29F = biological target: T4, Sac7d V26F/M29F
Sac7d V26A/M29A [3] = biological target: T5, Sac7d V26A/M29A
Sac7d V26A/M29A [4] = biological target: T5, Sac7d V26A/M29A; remark: listed apart in the source
Sac7d V26A/M29A [5] = biological target: T5, Sac7d V26A/M29A; remark: listed apart in the source

Row | Binder | binding result (Sac7d V26A) | binding result (Sac7d M29F [1]) | binding result (Sac7d M29A) | also measured
1 | B1 | binds | binds | binds | 
2 | B2 | binds |  | binds | binding result (Sac7d M29F [2]): binds; binding result (Sac7d V26F/M29F): binds; binding result (Sac7d V26A/M29A [3]): binds
3 | B3 |  |  |  | binding result (Sac7d V26A/M29A [4]): binds
4 | B4 |  | binds |  | binding result (Sac7d V26A/M29A [5]): binds
